Experimental findings from patent US20160137740A1 (AstraZeneca / MedImmune, published 2016) are described below.

Experiment [1] addresses T1, Human OX40 (human, UniProt P43489 29-277).
T1 sequence: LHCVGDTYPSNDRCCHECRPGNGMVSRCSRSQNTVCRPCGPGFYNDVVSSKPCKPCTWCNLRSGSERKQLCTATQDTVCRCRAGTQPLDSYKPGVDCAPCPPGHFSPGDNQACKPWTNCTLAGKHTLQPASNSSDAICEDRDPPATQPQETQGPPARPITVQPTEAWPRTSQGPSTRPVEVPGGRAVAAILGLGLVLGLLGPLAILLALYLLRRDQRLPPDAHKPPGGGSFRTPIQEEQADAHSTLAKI
Kind of experiment: cell-based or functional assay.

In experiment [2] the target is T1, Human OX40. Kind of experiment: cell-based or functional assay. This is another data set of the same source.
In experiment [3] the target is T2, Recombinant human TNFRSF16 (NGFR) (human, UniProt P08138 29-250).
T2 construct: Plate-adsorbed antigen of the ELISA
T2 sequence (looked up): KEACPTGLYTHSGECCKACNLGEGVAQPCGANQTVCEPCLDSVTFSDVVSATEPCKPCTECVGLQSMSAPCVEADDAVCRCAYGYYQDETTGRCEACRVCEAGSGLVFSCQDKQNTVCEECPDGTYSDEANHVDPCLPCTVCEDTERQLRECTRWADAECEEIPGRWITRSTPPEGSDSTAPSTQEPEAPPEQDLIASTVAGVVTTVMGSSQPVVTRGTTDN
Kind of experiment: ELISA, plate coated with a dilution series of the recombinant TNFRSF protein [panel B]. The method, then:
(§1) An eight point, two-fold dilution series of each recombinant human TNFRSF protein was prepared after dilution of stock proteins to 5 μg/mL in PBS. Subsequently, 50 μL of each antigen dilution was transferred in duplicate to wells of a Nunc 96-well MaxiSorp flat bottom plate, and incubated overnight at 4° C. to adsorb proteins to the plate. Afterwards, plates were washed three times with PBS in a BioTek® plate washer to remove unbound protein. Anti OX40 mAb29, 9B12, and control antibodies were diluted in PBS to a final concentration of 10 μg/mL, and 50 μL of mAb were added to each well and incubated at room temperature for one hour to bind mAb to plate-bound protein. Thereafter, wells were washed with PBS/Tween-20 0.1% (volume/volume) using a BioTek® plate washer. HRP conjugated goat anti-human or goat anti-mouse secondary antibodies at 10 μg/mL was added to each well and incubated at room temperature for 1 hour. After three washes in PBS/Tween-20 0.1%, 50 μL of TMB substrate was added to each well and incubated at room temperature for 5 minutes to develop the colorimetric product. Reactions were stopped by adding 50 μL of 0.5 molar H₂SO₄ to wells, and plates read immediately at 450 nm using an Envision C plate reader for detection of the colorimetric product.
Background: An ELISA detects its analyte on a solid surface through an enzyme-linked reagent.

Experiment [4] concerns the target T3, Recombinant human TNFRSF3 (LTβR) (human, UniProt P36941 28-227, limits assumed).
T3 construct: Plate-adsorbed antigen of the ELISA
Described as above. The method, then:
as §1

For experiment [5], the target named is T4, Recombinant human TNFRSF9 (CD137) (human, UniProt Q07011 24-186, limits assumed).
T4 construct: Plate-adsorbed antigen of the ELISA
Described as above. The procedure:
as §1

The target in experiment [6] is T5, Recombinant human TNFRSF14 (HVEM) (human, UniProt Q92956 39-202, limits assumed).
T5 construct: Plate-adsorbed antigen of the ELISA
T5 sequence (looked up): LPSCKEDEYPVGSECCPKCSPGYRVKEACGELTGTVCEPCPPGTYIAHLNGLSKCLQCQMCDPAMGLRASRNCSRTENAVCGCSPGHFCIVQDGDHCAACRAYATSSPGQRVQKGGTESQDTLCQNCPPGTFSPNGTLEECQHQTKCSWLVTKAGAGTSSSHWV
Described as above. The method, then:
as §1

Experiment [7] concerns the target T6, Recombinant human TNFRSF11B (OPG) (human, UniProt O00300 22-401, limits assumed).
T6 construct: Plate-adsorbed antigen of the ELISA; also called osteoprotegerin
T6 sequence (looked up): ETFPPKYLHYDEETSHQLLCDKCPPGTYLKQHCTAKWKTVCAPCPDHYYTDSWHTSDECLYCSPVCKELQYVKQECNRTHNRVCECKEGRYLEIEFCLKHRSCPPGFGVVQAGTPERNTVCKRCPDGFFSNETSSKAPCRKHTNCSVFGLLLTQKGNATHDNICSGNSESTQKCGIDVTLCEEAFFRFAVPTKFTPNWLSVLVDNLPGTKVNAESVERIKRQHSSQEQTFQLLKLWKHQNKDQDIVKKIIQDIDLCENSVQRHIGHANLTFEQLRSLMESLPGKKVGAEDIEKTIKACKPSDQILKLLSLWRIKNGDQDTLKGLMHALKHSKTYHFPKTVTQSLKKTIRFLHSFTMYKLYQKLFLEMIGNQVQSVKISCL
The experiment is described as above. The procedure: as §1

Experiment [8] concerns the target T7, Recombinant human TNFRSF11A (RANK) (human, UniProt Q9Y6Q6 30-212).
T7 construct: Plate-adsorbed antigen of the ELISA; also called CD265
T7 sequence (looked up): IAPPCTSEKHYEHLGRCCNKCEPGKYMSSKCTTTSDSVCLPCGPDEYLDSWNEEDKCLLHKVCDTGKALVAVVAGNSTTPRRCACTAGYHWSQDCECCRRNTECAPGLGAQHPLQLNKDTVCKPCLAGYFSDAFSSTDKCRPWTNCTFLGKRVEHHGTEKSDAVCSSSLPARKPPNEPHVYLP
The description is as above. The procedure:
as §1

Experiment [9] has as its target T8, Recombinant human TNFRSF5 (CD40) (human, UniProt P25942 21-193).
T8 construct: Plate-adsorbed antigen of the ELISA
The experiment is described as above. The procedure: as §1

T8 sequence (P25942 21-193 limits assumed): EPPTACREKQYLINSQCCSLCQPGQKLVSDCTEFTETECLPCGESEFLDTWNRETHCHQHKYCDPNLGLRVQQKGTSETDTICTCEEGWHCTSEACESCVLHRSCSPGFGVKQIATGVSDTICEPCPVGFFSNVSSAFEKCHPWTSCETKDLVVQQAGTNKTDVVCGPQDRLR
T3 sequence (P36941 28-227 limits assumed): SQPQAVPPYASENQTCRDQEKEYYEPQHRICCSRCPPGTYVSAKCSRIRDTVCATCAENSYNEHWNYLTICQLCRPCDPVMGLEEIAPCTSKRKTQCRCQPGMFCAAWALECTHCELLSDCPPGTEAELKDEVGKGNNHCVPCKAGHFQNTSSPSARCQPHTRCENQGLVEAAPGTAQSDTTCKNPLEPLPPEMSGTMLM

B1: 9B12 (antibody, mouse IgG1, V domains shown)
VH: EVQLQESGPSLVKPSQTLSLTCSVTGDSFTSGYWNWIRKFPGNRLEYMGYISYNGITYHNPSLKSRISITRDTSKNHYYLQLNSVTTEDTATYFCARYRYDYDGGHAMDYWGQGTLVTVSS
VL: DIQMTQTTSSLSASLGDRVTISCRASQDISNYLNWYQQKPDGTVKLLIYYTSKLHSGVPSRFSGSGSRTDYSLTITDLDQEDIATYFCQQGSALPWTFGQGTKVEIKR
notes: mouse IgG1 kappa; also called murine mAb 9B12; mouse anti-human OX40 IgG1κ monoclonal antibody
With B1, in the experiment with Human OX40 [1], the “EC50, IL13 release, donor 645” value is 5.45 nM; the “EC50, IL13 release, donor 651” value was 1.77 nM; the “EC50, IL13 release, donor 661” value came out at 0.238 nM. Moreover, in the experiment with Human OX40 [2], the “EC50, NFκB-luciferase 2-cell assay, exp 1, Raji” value worked out at 9.28 nM; the “EC50, NFκB-luciferase 2-cell assay, exp 2, CD32A-expressing HEK” value was found to be 0.338 nM; the “EC50, NFκB-luciferase 2-cell assay, exp 3, CD32A-expressing HEK” value is 0.225 nM; the “EC50, NFκB-luciferase 2-cell assay, exp 4, Raji” value was 5.04 nM. In the experiment with Human OX40 [2], the “EC50, NFκB-luciferase 2-cell assay, exp 5, CD32B-expressing HEK” value was found to be 0.726 nM; the “EC50, NFκB-luciferase 2-cell assay, exp 6, Raji” value amounted to 2.7 nM; the “EC50, NFκB-luciferase 2-cell assay, exp 7, CD32B-expressing HEK” value turned out to be 1.77 nM; the “EC50, NFκB-luciferase 2-cell assay, exp 8, CD32B-expressing HEK” value stood at 1.34 nM. In the experiment with Human OX40 [2], the “EC50, NFκB-luciferase 2-cell assay, exp 9, Raji” value is 3.07 nM; the “EC50, NFκB-luciferase 2-cell assay, exp 10, Raji” value was found to be 3.33 nM; the “EC50, NFκB-luciferase 2-cell assay, exp 11, CD32B-expressing HEK” value turned out to be 2.36 nM; the “EC50, NFκB-luciferase 2-cell assay, exp 12, CD45+ cells, NSCLC” value amounted to 0.223 nM. In the experiment with Human OX40 [2], the “EC50, NFκB-luciferase 2-cell assay, exp 15, CD45+ cells, RCC” value was 2.42 nM. For the same molecule, in [3], the binding result is “no binding”. Also, the binding result in experiment [4] is “no binding”. Moreover, the binding result in experiment [5] was “no binding”. Also, the binding result in experiment [6] is “no binding”. Further, the binding result in experiment [7] is “no binding”. Besides, the binding result in experiment [8] was “no binding”. In addition, in [9], the binding result is given as “no binding”.
